Assay results from US20030175270A1, “Methods of regulating cytokine receptor signaling” (priority 2002, published 2003).

System: JAK2
Test: in vitro tyrosine phosphatase assay, substrate JAK2
Format: biochemical, mouse
Details: 30° C., 20 min
Experimental: For tyrosine phosphatase assays, immunoprecipitated Lyn, JAKs or STATs from lysates of 10^7 BMMCs (for Lyn, JAK1, JAK2, STAT3 and STAT5) or macrophages (for Tyk2) were washed in lysis buffer and phosphatase reaction buffer [Felberg et al., J. Biol. Chem. 273:17839-17845, 1998]. The amounts of Lyn and JAK2 in the immunoprecipitates used in FIG. 3A were 72 ng and 48 ng, respectively, as determined by silver staining. Recombinant CD45 was added to substrates in the presence or absence of 0.1 mM Na3 VO4 followed by incubation at 30° C. for 20 min. Tyrosine phosphorylation was monitored by immunoblotting with phosphotyrosine-specific antibodies. The extent of tyrosine phosphorylation and amount of substrates were determined by quantifying the intensities of the immunoblots with NIH Image 1.61 software. Kinase activity in anti-Lyn or anti-JAK immunoprecipitates was assessed by an in vitro kinase assay with Raytide (Oncogen Science) as a substrate or using authophosphorylation [Lui et al., Genes Dev. 13:786-791, 1999]. In vitro binding assays were performed as described [Felberg et al., J. Biol. Chem. 273:17839-17845, 1998], using 1 μg of soluble GST, GST-CD45-D2, or GST-PTPase-dead CD45 (D1:C828S). EMSAs were as described [Charurvedi et al., Mol. Cell. Biol. 17:3295-3304, 1997]. The sequences of the EMSA probes were: STAT3, 5′-[…]-3′ (SEQ ID NO: 1); STAT3 mutant, 5′-[…]-3′ (SEQ ID NO: 2).
To determine whether CD45 could directly dephosphorylate JAKs and/or STATs, phosphatase assays were used in in vitro studies with recombinant CD45. The rCD45 employed contained the intracellular dual PTPase domains with a relative molecular mas of 97,000 (Mr 97K) (the catalytic D1 and the non-catalytic D2 domains) of CD45 but lacked its extracellular regions. […] Phosphorylation was examined with anti-phosphoryrosine, anti-phospho-Tyr 705 STAT3 (P-Y705-STAT3), and anti-phospho-Try 1007/Try 1008 JAK2 (P-Y1007/1008-JAK2). Assays were performed with 10U (for JAK2) or 90U (for STAT3) of rCD45. […]

B1: lambda PTPase: bacterial lambda PTPase, from Calbiochem (protein)
chain: MRYYEKIDGSKYRNIWVVGDLHGCYTNLMNKLDTIGFDNKKDLLISVGDLVDRGAENVECLELITFPWFRAVRGNHEQMMIDGLSERGNVNHWLLNGGGWFFNLDYDKEILAKALAHKADELPLIIELVSKDKKYVICHADYPFDEYEFGKPVDHQQVIWNRERISNSQNGIVKEIKGADTFIFGHTPAVKPLKFANQMYIDTGAVFCGNLTLIQVQGEGA
dephosphorylation of JAK2: did not dephosphorylate JAK2

B2: PTPase-dead rCD45: PTPase-dead recombinant CD45, D1:C828S mutant (protein, UniProt P08575 26-1306, looked up, variant C828S)
Receptor-type …: QSPTPSPTGLTTAKMPSVPLSSDPLPTHTTAFSPASTFERENDFSETTTSLSPDNTSTQVSPDSLDNASAFNTTGVSSVQTPHLPTHADSQTPSAGTDTQTFSGSAANAKLNPTPGSNAISDVPGERSTASTFPTDPVSPLTTTLSLAHHSSAALPARTSNTTITANTSDAYLNASETTTLSPSGSAVISTTTIATTPSKPTCDEKYANITVDYLYNKETKLFTAKLNVNENVECGNNTCTNNEVHNLTECKNASVSISHNSCTAPDKTLILDVPPGVEKFQLHDCTQVEKADTTICLKWKNIETFTCDTQNITYRFQCGNMIFDNKEIKLENLEPEHEYKCDSEILYNNHKFTNASKIIKTDFGSPGEPQIIFCRSEAAHQGVITWNPPQRSFHNFTLCYIKETEKDCLNLDKNLIKYDLQNLKPYTKYVLSLHAYIIAKVQRNGSAAMCHFTTKSAPPSQVWNMTVSMTSDNSMHVKCRPPRDRNGPHERYHLEVEAGNTLVRNESHKNCDFRVKDLQYSTDYTFKAYFHNGDYPGEPFILHHSTSYNSKALIAFLAFLIIVTSIALLVVLYKIYDLHKKRSCNLDEQQELVERDDEKQLMNVEPIHADILLETYKRKIADEGRLFLAEFQSIPRVFSKFPIKEARKPFNQNKNRYVDILPYDYNRVELSEINGDAGSNYINASYIDGFKEPRKYIAAQGPRDETVDDFWRMIWEQKATVIVMVTRCEEGNRNKCAEYWPSMEEGTRAFGDVVVKINQHKRCPDYIIQKLNIVNKKEKATGREVTHIQFTSWPDHGVPEDPHLLLKLRRRVNAFSNFFSGPIVVHSSAGVGRTGTYIGIDAMLEGLEAENKVDVYGYVVKLRRQRCLMVQVEAQYILIHQALVEYNQFGETEVNLSELHPYLHNMKKRDPPSEPSPLEAEFQRLPSYRSWRTQHIGNQEENKSKNRNSNVIPYDYNRVPLKHELEMSKESEHDSDESSDDDSDSEEPSKYINASFIMSYWKPEVMIAAQGPLKETIGDFWQMIFQRKVKVIVMLTELKHGDQEICAQYWGEGKQTYGDIEVDLKDTDKSSTYTLRVFELRHSKRKDSRTVYQYQYTNWSVEQLPAEPKELISMIQVVKQKLPQKNSSEGNKHHKSTPLLIHCRDGSQQTGIFCALLNLLESAETEEVVDIFQVVKALRKARPGMVSTFEQYQFLYDVIASTYPAQNGQVKKNNHQEDKIEFDNEVDKVKQDANCVNPLGAPEKLPEAKEQAEGSEPTSGTEGPEHSVNGPASPALNQGS
dephosphorylation of JAK2: did not dephosphorylate JAK2

B3: TC-PTP: human non-receptor tyrosine PTPase, from Calbiochem (protein)
chain: MPTTIEREFEELDTQRRWQPLYLEIRNESHDYPHRVAKFPENRNRNRYRDVSPYDHSRVKLQNAENDYINASLVDIEEAQRSYILTQGPLPNTCCHFWLMVWQQKTKAVVMLNRIVEKESVKCAQYWPTDDQEMLFKETGFSVKLLSEDVKSYYTVHLLQLENINSGETRTISHFHYTTWPDFGVPESPASFLNFLFKVRESGSLNPDHGPAVIHCSAGIGRSGTFSLVDTCLVLMEKGDDINIKQVLLNMRKYRMGLIQTPDQLRFSYMAIIEGAKCIKGDSSIQKRWKELSKEDLSPAFDHSPNKIMTEKYNGNR
dephosphorylation of JAK2: did not dephosphorylate JAK2
